Test results: PMC9539395 (2022)

Columns and labels:
Test in all cases: BLI
Wuhan RBD‐8his [1] = target: T1, Wuhan RBD‐8his (SARS-CoV-2, UniProt P0DTC2)
gamma RBD [2] = target: T2, gamma RBD (SARS-CoV-2, UniProt P0DTC2)
Wuhan RBD‐8his [3] = target: T1, Wuhan RBD‐8his; remark: listed apart in the source
gamma RBD [4] = target: T2, gamma RBD; remark: listed apart in the source

B1: sACE2_(2).v2.4(NN)‐IgG1 (Fc fusion)
chain: QSTIEEQAKYFLDKFNHEAEDLFYQSSLASWNYNTNITEENVQNMNNAGDKWSAFLKEQSTTAQMYPLQEIQNLTVKLQLQALQQNGSSVLSEDKSKRLNTILNTMSTIYSTGKVCNPDNPQECLLLEPGLNEIMANSLDYNERLWAWESWRSEVGKQLRPLYEEYVVLKNEMARANHYEDYGDYWRGDYEVNGVDGYDYSRGQLIEDVEHTFEEIKPLYEHLHAYVRAKLMNAYPSYISPIGCLPAHLLGDMWGRFWTNLYSLTVPFGQKPNIDVTDAMVDQAWDAQRIFKEAEKFFVSVGLPNMTQGFWEYSMLTDPGNVQKAVCHPTAWDLGKGDFRILMCTKVTMDDFLTAHNEMGNIQYDMAYAAQPFLLRNGANEGFHEAVGEIMSLSAATPKHLKSIGLLSPDFQEDNETEINFLLKQALTIVGTLPFTYMLEKWRWMVFKGEIPKDQWMKKWWEMKREIVGVVEPVPHDETYCDPASLFHVSNDYSFIRYYTRTLYQFQFQEALCQAAKHEGPLHKCDISNSTEAGQKLFNMLRLGKSEPWTLALENVVGAKNMNVRPLLNYFEPLFTWLKDQNKNSFVGWSTDWSPYADQSIKVRISLKSALGDKAYEWNDNEMYLFRSSVAYAMRQYFLKVKNQMILFGEEDVRVANLKPRISFNFFVTAPKNVSDIIPRTEVEKAIRMSRSRINDAFRLNDNSLEFLGIQPTLG
B1 was tested, and the koff (Wuhan RBD‐8his [1]) was 0.00032 s⁻¹, the koff (gamma RBD [2]) was 0.00043 s⁻¹ and the Kd (Wuhan RBD‐8his [3]) was 500 pM. The Kd (gamma RBD [4]) was 500 pM.
